Laboratory results published in patent US20090192084A1 (CALIFORNIA INSTITUTE OF TECHNOLOGY, published 2009).

T1: Ubiquitin conjugation factor E4 B, UBE4B (Ufd2ortholog) (human, UniProt O95155 1-1302)
T1 sequence (looked up): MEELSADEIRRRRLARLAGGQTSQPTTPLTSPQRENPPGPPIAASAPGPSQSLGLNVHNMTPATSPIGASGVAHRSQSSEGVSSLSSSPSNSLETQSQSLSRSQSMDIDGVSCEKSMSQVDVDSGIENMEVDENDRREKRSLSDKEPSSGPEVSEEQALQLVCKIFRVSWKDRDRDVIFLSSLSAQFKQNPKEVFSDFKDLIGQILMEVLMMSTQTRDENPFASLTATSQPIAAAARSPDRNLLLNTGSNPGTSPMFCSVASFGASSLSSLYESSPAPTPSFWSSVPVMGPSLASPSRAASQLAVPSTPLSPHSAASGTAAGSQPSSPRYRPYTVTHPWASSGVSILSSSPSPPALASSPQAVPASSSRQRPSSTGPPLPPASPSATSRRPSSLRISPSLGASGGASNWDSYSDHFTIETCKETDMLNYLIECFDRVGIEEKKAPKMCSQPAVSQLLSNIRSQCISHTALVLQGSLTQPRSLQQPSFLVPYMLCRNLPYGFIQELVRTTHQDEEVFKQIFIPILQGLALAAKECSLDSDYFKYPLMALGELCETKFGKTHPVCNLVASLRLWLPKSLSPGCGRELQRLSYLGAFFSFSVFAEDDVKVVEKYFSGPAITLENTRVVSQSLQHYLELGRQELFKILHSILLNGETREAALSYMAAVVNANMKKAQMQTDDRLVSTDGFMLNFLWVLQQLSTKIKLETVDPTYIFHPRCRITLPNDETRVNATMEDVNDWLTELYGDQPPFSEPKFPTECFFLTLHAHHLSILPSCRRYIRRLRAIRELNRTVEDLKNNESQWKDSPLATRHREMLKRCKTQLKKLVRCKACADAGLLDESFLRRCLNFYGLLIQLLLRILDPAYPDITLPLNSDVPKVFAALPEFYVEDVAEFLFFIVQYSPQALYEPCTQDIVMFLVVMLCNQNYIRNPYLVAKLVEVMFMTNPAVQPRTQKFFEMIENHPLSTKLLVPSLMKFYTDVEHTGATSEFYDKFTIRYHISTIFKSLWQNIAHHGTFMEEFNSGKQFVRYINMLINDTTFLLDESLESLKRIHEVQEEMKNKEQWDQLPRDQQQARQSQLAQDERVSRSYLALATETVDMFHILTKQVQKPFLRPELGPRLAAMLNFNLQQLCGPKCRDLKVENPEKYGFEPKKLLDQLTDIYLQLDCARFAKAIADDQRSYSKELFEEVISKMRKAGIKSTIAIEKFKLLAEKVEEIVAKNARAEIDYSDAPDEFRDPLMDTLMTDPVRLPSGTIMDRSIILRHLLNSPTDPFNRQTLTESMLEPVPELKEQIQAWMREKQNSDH


How the values were obtained:
endogenous p97 = molecular target: T2, endogenous p97 (human, UniProt P55072 2-806); assay: Flag co-IP, 293 cells, MudPIT MS
T2 construct: also called VCP
Procedure: For immunoprecipitation experiments, the cells were lysed in buffer A (50 mM HEPES/KOH, pH 7.5; 5 mM Mg(OAc)₂; 70 mM KOAc; 0.2% Triton X-100; 10% glycerol; 0.2 mM EDTA; protease inhibitors) and incubated with anti-Flag agarose beads (Sigma) or anti-Myc sepharose beads (Covance).
Mass spectrometrical sample analysis was performed as described previously (Graumann et al., 2004) using a high-pressure liquid chromatography pump (Agilent) in line to a LCQ DecaXP electrospray ion trap mass spectrometer (ThermoFinnigan). In brief, 2-4 mg of protein extract were incubated with anti-Flag or anti-Myc beads and the immunoprecipitated proteins were eluted with saturated urea. The eluates were then proteolitically digested using sequentially endoproteinase Lys-C and trypsin. The resulting peptide mixtures were pressure-loaded onto triphasic microcapillary columns and sample separation was achieved using a chromatography program consisting of six salt steps, each followed by an organic gradient. The eluting peptides were electrosprayed into the mass spectrometer and the column eluate was continuously analyzed. One full-range mass scan ([…]) was followed by three data-dependent tandem mass spectrometry (MS/MS) spectra. Sequence database matching was performed against the IPI human database (Kersey et al., 2004) version 3.15.1 using Sequest (Eng et al., 1994) and the results were filtered with DTASelect (Tabb et al., 2002), using the parameters indicated in Graumann et al. (2004).

[1] = molecular target: T1, Ubiquitin conjugation factor E4 B, …; assay: co-IP, MudPIT MS

Binder | sequence count (endogenous p97) | sequence coverage (endogenous p97) [%] | spectrum count (endogenous p97) | binding result [1]
Flag-SAKS1 (other, UniProt Q04323 1-297, looked up, also called RDB 2150; not shown: N-terminal Flag tag) MAELTALESLIEMGFPRGRAEKALALTGNQGIEAAMDWLMEHEDDPDVDEPLETPLGHILGREPTSSEQGGLEGSGSAAGEGKPALSEEERQEQTKRMLELVAQKQREREEREEREALERERQRRRQGQELSAARQRLQEDEMRRAAEERRREKAEELAARQRVREKIERDKAERAKKYGGSVGSQPPPVAPEPGPVPSSPSQEPPTKREYDQCRIQVRLPDGTSLTQTFRAREQLAAVRLYVELHRGEELGGGQDPVQLLSGFPRRAFSEADMERPLQELGLVPSAVLIVAKKCPS | 68 | 57.4 | 663 | –
Flag-UBXD2 (other, UniProt Q92575 1-508, looked up, also called RDB 2153; not shown: N-terminal Flag tag) MLWFQGAIPAAIATAKRSGAVFVVFVAGDDEQSTQMAASWEDDKVTEASSNSFVAIKIDTKSEACLQFSQIYPVVCVPSSFFIGDSGIPLEVIAGSVSADELVTRIHKVRQMHLLKSETSVANGSQSESSVSTPSASFEPNNTCENSQSRNAELCEIPPTSDTKSDTATGGESAGHATSSQEPSGCSDQRPAEDLNIRVERLTKKLEERREEKRKEEEQREIKKEIERRKTGKEMLDYKRKQEEELTKRMLEERNREKAEDRAARERIKQQIALDRAERAARFAKTKEEVEAAKAAALLAKQAEMEVKRESYARERSTVARIQFRLPDGSSFTNQFPSDAPLEEARQFAAQTVGNTYGNFSLATMFPRREFTKEDYKKKLLDLELAPSASVVLLPAGRPTASIVHSSSGDIWTLLGTVLYPFLAIWRLISNFLFSNPPPTQTSVRVTSSEPPNPASSSKSEKREPVRKRVLEKRGDDFKKEGKIYRLRTQDDGEDENNTWNGNSTQQM | 27 | 41.1 | 958 | –
Flag-UBXD6 (other, UniProt O00124 1-270, looked up, also called Rep-8/UBXD6; RDB 2145; not shown: N-terminal Flag tag) MASRGVVGIFFLSAVPLVCLELRRGIPDIGIKDFLLLCGRILLLLALLTLIISVTTSWLNSFKSPQVYLKEEEEKNEKRQKLVRKKQQEAQGEKASRYIENVLKPHQEMKLRKLEERFYQMTGEAWKLSSGHKLGGDEGTSQTSFETSNREAAKSQNLPKPLTEFPSPAEQPTCKEIPDLPEEPSQTAEEVVTVALRCPSGNVLRRRFLKSYSSQVLFDWMTRIGYHISLYSLSTSFPRRPLAVEGGQSLEDIGITVDTVLILEEKEQTN | 55 | 59.5 | 212 | –
Flag-UBXD1 (other, UniProt Q9BZV1 1-441, looked up, also called RDB 2152; not shown: N-terminal Flag tag) MKKFFQEFKADIKFKSAGPGQKLKESVGEKAHKEKPNQPAPRPPRQGPTNEAQMAAAAALARLEQKQSRAWGPTSQDTIRNQVRKELQAEATVSGSPEAPGTNVVSEPREEGSAHLAVPGVYFTCPLTGATLRKDQRDACIKEAILLHFSTDPVAASIMKIYTFNKDQDRVKLGVDTIAKYLDNIHLHPEEEKYRKIKLQNKVFQERINCLEGTHEFFEAIGFQKVLLPAQDQEDPEEFYVLSETTLAQPQSLERHKEQLLAAEPVRAKLDRQRRVFQPSPLASQFELPGDFFNLTAEEIKREQRLRSEAVERLSVLRTKAMREKEEQRGLRKYNYTLLRVRLPDGCLLQGTFYARERLGAVYGFVREALQSDWLPFELLASGGQKLSEDENLALNECGLVPSALLTFSWDMAVLEDIKAAGAEPDSILKPELLSAIEKLL | 159 | 84.3 | 1130 | –

The next lines start with the values.

sequence count (endogenous p97) | sequence coverage (endogenous p97) [%] | spectrum count (endogenous p97) | binding result [1] | Binder
48 | 57.6 | 3090 | no binding | Flag-UBXD8 (other, UniProt Q96CS3 1-445, looked up, also called RDB 2143; not shown: N-terminal Flag tag) MAAPEERDLTQEQTEKLLQFQDLTGIESMDQCRHTLEQHNWNIEAAVQDRLNEQEGVPSVFNPPPSRPLQVNTADHRIYSYVVSRPQPRGLLGWGYYLIMLPFRFTYYTILDIFRFALRFIRPDPRSRVTDPVGDIVSFMHSFEEKYGRAHPVFYQGTYSQALNDAKRELRFLLVYLHGDDHQDSDEFCRNTLCAPEVISLINTRMLFWACSTNKPEGYRVSQALRENTYPFLAMIMLKDRRMTVVGRLEGLIQPDDLINQLTFIMDANQTYLVSERLEREERNQTQVLRQQQDEAYLASLRADQEKERKKREERERKRRKEEEVQQQKLAEERRRQNLQEEKERKLECLPPEPSPDDPESVKIIFKLPNDSRVERRFHFSQSLTVIHDFLFSLKESPEKFQIEANFPRRVLPCIPSEEWPNPPTLQEAGLSHTEVLFVQDLTDE
154 | 78.5 | 1440 | – | Flag-ASPL (other, UniProt Q9BZE9 1-553, looked up, also called RDB 2144; not shown: N-terminal Flag tag) MAAPAGGGGSAVSVLAPNGRRHTVKVTPSTVLLQVLEDTCRRQDFNPCEYDLKFQRSVLDLSLQWRFANLPNNAKLEMVPASRSREGPENMVRIALQLDDGSRLQDSFCSGQTLWELLSHFPQIRECLQHPGGATPVCVYTRDEVTGEAALRGTTLQSLGLTGGSATIRFVMKCYDPVGKTPGSLGSSASAGQAAASAPLPLESGELSRGDLSRPEDADTSGPCCEHTQEKQSTRAPAAAPFVPFSGGGQRLGGPPGPTRPLTSSSAKLPKSLSSPGGPSKPKKSKSGQDPQQEQEQERERDPQQEQERERPVDREPVDREPVVCHPDLEERLQAWPAELPDEFFELTVDDVRRRLAQLKSERKRLEEAPLVTKAFREAQIKEKLERYPKVALRVLFPDRYVLQGFFRPSETVGDLRDFVRSHLGNPELSFYLFITPPKTVLDDHTQTLFQANLFPAALVHLGAEEPAGVYLEPGLLEHAISPSAADVLVARYMSRAAGSPSPLPAPDPAPKSEPAAEEGALVPPEPIPGTAQPVKRSLGKVPKWLKLPASKR
57 | 64.5 | 254 | – | Flag-UBXD3 (other, UniProt Q96LJ8 1-280, looked up, also called RDB 2149; not shown: N-terminal Flag tag) MATEAPVNIAPPECSTVVSTAVDSLIWQPNSLNMHMIRPKSAKGRTRPSLQKSQGVEVCAHHIPSPPPAIPYELPSSQKPGACAPKSPNQGASDEIPELQQQVPTGASSSLNKYPVLPSINRKNLEEEAVETVAKKASSLQLSSIRALYQDETGTMKTSEEDSRARACAVERKFIVRTKKQGSSRAGNLEEPSDQEPRLLLAVRSPTGQRFVRHFRPTDDLQTIVAVAEQKNKTSYRHCSIETMEVPRRRFSDLTKSLQECRIPHKSVLGISLEDGEGWP
84 | 68.9 | 539 | no binding | Flag-FAF1 (other, UniProt Q9UNN5 1-650, looked up, also called RDB 2151; not shown: N-terminal Flag tag) MASNMDREMILADFQACTGIENIDEAITLLEQNNWDLVAAINGVIPQENGILQSEYGGETIPGPAFNPASHPASAPTSSSSSAFRPVMPSRQIVERQPRMLDFRVEYRDRNVDVVLEDTCTVGEIKQILENELQIPVSKMLLKGWKTGDVEDSTVLKSLHLPKNNSLYVLTPDLPPPSSSSHAGALQESLNQNFMLIITHREVQREYNLNFSGSSTIQEVKRNVYDLTSIPVRHQLWEGWPTSATDDSMCLAESGLSYPCHRLTVGRRSSPAQTREQSEEQITDVHMVSDSDGDDFEDATEFGVDDGEVFGMASSALRKSPMMPENAENEGDALLQFTAEFSSRYGDCHPVFFIGSLEAAFQEAFYVKARDRKLLAIYLHHDESVLTNVFCSQMLCAESIVSYLSQNFITWAWDLTKDSNRARFLTMCNRHFGSVVAQTIRTQKTDQFPLFLIIMGKRSSNEVLNVIQGNTTVDELMMRLMAAMEIFTAQQQEDIKDEDEREARENVKREQDEAYRLSLEADRAKREAHEREMAEQFRLEQIRKEQEEEREAIRLSLEQALPPEPKEENAEPVSKLRIRTPSGEFLERRFLASNKLQIVFDFVASKGFPWDEYKLLSTFPRRDVTQLDPNKSLLEVKLFPQETLFLEAKE
